Results reported in patent publication US20200261595A1 (Novo Nordisk, published 2020).

Experiments:
[1] = target: insulin receptor of isolated rat adipocytes (rat, UniProt P15127 27-1383); assay: cell-based or functional assay
insulin receptor A = insulin receptor A (UniProt P06213-2 28-1370, limits assumed); assay: insulin receptor binding assay as in Vienberg et al. 2011; relative to human insulin on insulin receptor A (100%)
Sequence of insulin receptor A (P06213 other isoform, or with tags, fused parts or gaps limits assumed): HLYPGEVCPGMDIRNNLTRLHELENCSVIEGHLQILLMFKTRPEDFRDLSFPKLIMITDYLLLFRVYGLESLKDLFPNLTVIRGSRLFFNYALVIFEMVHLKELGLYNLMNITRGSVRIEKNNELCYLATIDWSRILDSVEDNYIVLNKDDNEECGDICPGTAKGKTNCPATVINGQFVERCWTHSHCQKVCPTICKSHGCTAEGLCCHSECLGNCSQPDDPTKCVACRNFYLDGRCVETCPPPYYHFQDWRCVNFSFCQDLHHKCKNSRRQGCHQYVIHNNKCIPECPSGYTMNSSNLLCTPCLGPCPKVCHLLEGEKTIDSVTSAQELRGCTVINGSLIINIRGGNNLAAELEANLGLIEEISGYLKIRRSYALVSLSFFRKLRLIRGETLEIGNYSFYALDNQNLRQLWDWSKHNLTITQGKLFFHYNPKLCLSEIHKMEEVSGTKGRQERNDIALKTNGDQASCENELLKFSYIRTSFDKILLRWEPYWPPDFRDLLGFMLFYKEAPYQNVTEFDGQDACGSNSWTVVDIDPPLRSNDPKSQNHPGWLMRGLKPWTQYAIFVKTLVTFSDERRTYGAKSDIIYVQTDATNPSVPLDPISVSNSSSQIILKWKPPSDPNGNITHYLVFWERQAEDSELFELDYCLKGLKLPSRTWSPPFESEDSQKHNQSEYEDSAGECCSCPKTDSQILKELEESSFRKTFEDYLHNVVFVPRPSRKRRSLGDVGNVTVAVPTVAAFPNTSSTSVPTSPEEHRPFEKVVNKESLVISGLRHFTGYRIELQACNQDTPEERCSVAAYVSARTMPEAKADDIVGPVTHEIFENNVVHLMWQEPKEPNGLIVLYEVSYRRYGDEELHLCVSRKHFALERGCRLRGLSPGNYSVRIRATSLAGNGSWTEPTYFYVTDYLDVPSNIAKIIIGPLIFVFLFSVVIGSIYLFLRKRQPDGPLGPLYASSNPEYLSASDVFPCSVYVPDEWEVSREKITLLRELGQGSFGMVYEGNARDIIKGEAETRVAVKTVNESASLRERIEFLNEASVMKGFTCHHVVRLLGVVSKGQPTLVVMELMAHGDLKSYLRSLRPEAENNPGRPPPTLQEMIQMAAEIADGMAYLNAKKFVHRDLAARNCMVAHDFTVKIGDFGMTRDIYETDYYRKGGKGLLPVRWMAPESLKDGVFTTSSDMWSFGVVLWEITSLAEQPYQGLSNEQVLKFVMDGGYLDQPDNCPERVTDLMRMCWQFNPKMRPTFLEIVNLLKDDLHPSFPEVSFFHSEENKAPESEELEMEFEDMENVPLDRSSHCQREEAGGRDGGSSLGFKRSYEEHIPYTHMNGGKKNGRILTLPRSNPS

Sequence of insulin receptor of isolated rat adipocytes (P15127 27-1383): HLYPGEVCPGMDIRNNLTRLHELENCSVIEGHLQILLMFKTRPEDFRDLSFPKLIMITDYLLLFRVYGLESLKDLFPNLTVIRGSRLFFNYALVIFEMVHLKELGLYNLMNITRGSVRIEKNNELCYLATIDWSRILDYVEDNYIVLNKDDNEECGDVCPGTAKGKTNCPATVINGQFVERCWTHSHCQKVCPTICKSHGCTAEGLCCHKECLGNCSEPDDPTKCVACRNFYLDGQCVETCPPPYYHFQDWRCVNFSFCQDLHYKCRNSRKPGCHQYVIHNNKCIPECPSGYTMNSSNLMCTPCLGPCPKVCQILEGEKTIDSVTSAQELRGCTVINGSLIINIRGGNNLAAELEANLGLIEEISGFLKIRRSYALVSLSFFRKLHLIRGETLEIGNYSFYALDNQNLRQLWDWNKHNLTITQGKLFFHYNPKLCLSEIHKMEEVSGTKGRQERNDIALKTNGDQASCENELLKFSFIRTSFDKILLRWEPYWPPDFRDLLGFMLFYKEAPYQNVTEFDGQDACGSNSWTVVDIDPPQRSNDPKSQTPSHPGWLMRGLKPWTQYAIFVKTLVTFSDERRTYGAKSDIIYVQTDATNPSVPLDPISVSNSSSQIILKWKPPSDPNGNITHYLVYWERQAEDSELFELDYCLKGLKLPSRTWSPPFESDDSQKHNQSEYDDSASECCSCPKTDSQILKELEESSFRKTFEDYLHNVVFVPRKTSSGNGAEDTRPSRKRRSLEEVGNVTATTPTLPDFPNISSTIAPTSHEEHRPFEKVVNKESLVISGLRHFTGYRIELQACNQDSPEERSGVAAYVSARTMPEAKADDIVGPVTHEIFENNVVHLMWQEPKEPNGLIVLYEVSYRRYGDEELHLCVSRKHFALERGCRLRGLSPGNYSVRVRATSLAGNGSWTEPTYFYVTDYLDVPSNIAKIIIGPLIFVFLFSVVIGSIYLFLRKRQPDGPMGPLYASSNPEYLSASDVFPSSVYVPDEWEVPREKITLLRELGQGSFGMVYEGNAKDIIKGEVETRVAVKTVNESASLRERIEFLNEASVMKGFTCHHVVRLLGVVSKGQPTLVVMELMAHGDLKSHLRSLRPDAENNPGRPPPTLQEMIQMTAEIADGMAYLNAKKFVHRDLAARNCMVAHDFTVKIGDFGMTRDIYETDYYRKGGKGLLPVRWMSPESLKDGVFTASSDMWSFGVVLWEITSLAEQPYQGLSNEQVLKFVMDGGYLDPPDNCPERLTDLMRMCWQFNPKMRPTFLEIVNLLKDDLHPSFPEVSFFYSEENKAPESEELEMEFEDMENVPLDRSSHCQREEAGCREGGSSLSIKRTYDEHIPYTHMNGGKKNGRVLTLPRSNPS

Row | Binder | Lipogenesis in rat adipocytes [Potency (%)] Mean Value [1] | Insulin receptor affinity [IC50 relative to HI (%)] (insulin receptor A)
1 | A14E, A21G, A22(GQAPGQAPGQEP)6-GQAP, A98K^, A99P, B3Q, B25H, B29R, desB30 human insulin/(227A, 234A, 235K, 297E, 315Q, 384Q, des447 hIgG4-Fc(228-447)) … (other, Cys229 (EU numbering) sulphur bound to an acetyl arm of the linker; A98K N(eps) acylated by the trivalent linker 4-[bis[2-[(2-acetyl)amino]ethyl]amino]-4-oxo-butanoyl, also called Ex 5.13) chain 1: GIVEQCCTSICSLEQLENYCGGQAPGQAPGQEPGQAPGQAPGQEPGQAPGQAPGQEPGQAPGQAPGQEPGQAPGQAPGQEPGQAPGQAPGQEPGQAPKP chain 2: FVQQHLCGSHLVEALYLVCGERGFHYTPR chain 3: ASCPAPEAKGGPSVFLFPPKPKDTLMISRTPEVTCVVVDVSQEDPEVQFNWYVDGVEVHNAKTKPREEQFESTYRVVSVLTVLHQDWLQGKEYKCKVSNKGLPSSIEKTISKAKGQPREPQVYTLPPSQEEMTKNQVSLTCLVKGFYPSDIAVEWESQGQPENNYKTTPPVLDSDGSFFLYSRLTVDKSRWQEGNVFSCSVMHEALHNHYTQKSLSLSLG | 3.07 % of human insulin | 5.55%
2 | (A14E, A21G, A22(GQAP)18, A94G, A95Q, A96A, A97K^, A98P, B29R, desB30 human insulin)/(227A, 234A, 235K, 297E, 315Q, 384Q, des447 hIgG4-Fc(228-447)) … (other, Cys229 (EU numbering) sulphur bound to an acetyl arm of the linker; A97K N(eps) acylated by the trivalent linker 4-[bis[2-[(2-acetyl)amino]ethyl]amino]-4-oxo-butanoyl, also called Ex 5.26) chain 1: GIVEQCCTSICSLEQLENYCGGQAPGQAPGQAPGQAPGQAPGQAPGQAPGQAPGQAPGQAPGQAPGQAPGQAPGQAPGQAPGQAPGQAPGQAPGQAKP chain 2: FVNQHLCGSHLVEALYLVCGERGFFYTPR chain 3: ASCPAPEAKGGPSVFLFPPKPKDTLMISRTPEVTCVVVDVSQEDPEVQFNWYVDGVEVHNAKTKPREEQFESTYRVVSVLTVLHQDWLQGKEYKCKVSNKGLPSSIEKTISKAKGQPREPQVYTLPPSQEEMTKNQVSLTCLVKGFYPSDIAVEWESQGQPENNYKTTPPVLDSDGSFFLYSRLTVDKSRWQEGNVFSCSVMHEALHNHYTQKSLSLSLG | 3.23 % of human insulin | 3.95%
3 | A14E, A21G, A22(GQAPGQEP)6, A70K^, A71P, B25H, B29R, desB30 human insulin/(227A, 234A, 235K, 297E, 315Q, 384Q, des447 hIgG4-Fc(228-447)) … (other, Cys229 (EU numbering) sulphur bound to an acetyl arm of the linker; A70K N(eps) acylated by the trivalent linker 4-[bis[2-[(2-acetyl)amino]ethyl]amino]-4-oxo-butanoyl, also called Ex 5.14) chain 1: GIVEQCCTSICSLEQLENYCGGQAPGQEPGQAPGQEPGQAPGQEPGQAPGQEPGQAPGQEPGQAPGQEPKP chain 2: FVNQHLCGSHLVEALYLVCGERGFHYTPR chain 3: ASCPAPEAKGGPSVFLFPPKPKDTLMISRTPEVTCVVVDVSQEDPEVQFNWYVDGVEVHNAKTKPREEQFESTYRVVSVLTVLHQDWLQGKEYKCKVSNKGLPSSIEKTISKAKGQPREPQVYTLPPSQEEMTKNQVSLTCLVKGFYPSDIAVEWESQGQPENNYKTTPPVLDSDGSFFLYSRLTVDKSRWQEGNVFSCSVMHEALHNHYTQKSLSLSLG | 4.86 % of human insulin | 5.37%
4 | (A14E, A21G, A22(GQAP)19, A98K^, A99P, B25H, B29R, desB30 human insulin)/(227A, 234A, 235K, 297E, 315Q, 384Q, des447 hIgG4-Fc(228-447)) … (other, Cys229 (EU numbering) sulphur bound to an acetyl arm of the linker; A98K N(eps) acylated by the trivalent linker 6-[bis[2-[(2-acetyl)amino]ethyl]amino]-6-oxo-hexanoyl, also called Ex 5.16) chain 1: GIVEQCCTSICSLEQLENYCGGQAPGQAPGQAPGQAPGQAPGQAPGQAPGQAPGQAPGQAPGQAPGQAPGQAPGQAPGQAPGQAPGQAPGQAPGQAPKP chain 2: FVNQHLCGSHLVEALYLVCGERGFHYTPR chain 3: ASCPAPEAKGGPSVFLFPPKPKDTLMISRTPEVTCVVVDVSQEDPEVQFNWYVDGVEVHNAKTKPREEQFESTYRVVSVLTVLHQDWLQGKEYKCKVSNKGLPSSIEKTISKAKGQPREPQVYTLPPSQEEMTKNQVSLTCLVKGFYPSDIAVEWESQGQPENNYKTTPPVLDSDGSFFLYSRLTVDKSRWQEGNVFSCSVMHEALHNHYTQKSLSLSLG | 4.34 % of human insulin | 3.86%
5 | A14E, A21G, A22(GQEP)19, A98K^, A99P, B3Q, B25H, B29R, desB30 human insulin/(227A, 234A, 235K, 297E, 315Q, 384Q, des447 hIgG4-Fc(228-447)) … (other, Cys229 (EU numbering) sulphur bound to an acetyl arm of the linker; A98K N(eps) acylated by the trivalent linker 4-[bis[2-[(2-acetyl)amino]ethyl]amino]-4-oxo-butanoyl, also called Ex 5.2) chain 1: GIVEQCCTSICSLEQLENYCGGQEPGQEPGQEPGQEPGQEPGQEPGQEPGQEPGQEPGQEPGQEPGQEPGQEPGQEPGQEPGQEPGQEPGQEPGQEPKP chain 2: FVQQHLCGSHLVEALYLVCGERGFHYTPR chain 3: ASCPAPEAKGGPSVFLFPPKPKDTLMISRTPEVTCVVVDVSQEDPEVQFNWYVDGVEVHNAKTKPREEQFESTYRVVSVLTVLHQDWLQGKEYKCKVSNKGLPSSIEKTISKAKGQPREPQVYTLPPSQEEMTKNQVSLTCLVKGFYPSDIAVEWESQGQPENNYKTTPPVLDSDGSFFLYSRLTVDKSRWQEGNVFSCSVMHEALHNHYTQKSLSLSLG | 3.57 % of human insulin | 6.1%
6 | A14E, A21G, A22(GQAPGQAPGQAPGQEP)6-GQAP, A122K^, A123P, B25H, B29R, desB30 human insulin/(227A, 234A, 235K, 297E, 315Q, 384Q, des447 hIgG4-Fc(228-447)) … (other, Cys229 (EU numbering) sulphur bound to an acetyl arm of the linker; A122K N(eps) acylated by the trivalent linker 4-[bis[2-[(2-acetyl)amino]ethyl]amino]-4-oxo-butanoyl, also called Ex 5.20) chain 1: GIVEQCCTSICSLEQLENYCGGQAPGQAPGQAPGQEPGQAPGQAPGQAPGQEPGQAPGQAPGQAPGQEPGQAPGQAPGQAPGQEPGQAPGQAPGQAPGQEPGQAPGQAPGQAPGQEPGQAPKP chain 2: FVNQHLCGSHLVEALYLVCGERGFHYTPR chain 3: ASCPAPEAKGGPSVFLFPPKPKDTLMISRTPEVTCVVVDVSQEDPEVQFNWYVDGVEVHNAKTKPREEQFESTYRVVSVLTVLHQDWLQGKEYKCKVSNKGLPSSIEKTISKAKGQPREPQVYTLPPSQEEMTKNQVSLTCLVKGFYPSDIAVEWESQGQPENNYKTTPPVLDSDGSFFLYSRLTVDKSRWQEGNVFSCSVMHEALHNHYTQKSLSLSLG | 5.41 % of human insulin | 5.49%
7 | A14E, A21G, A22(GQEP)12, A70K^, A71P, B25H, B29R, desB30 human insulin/(227A, 234A, 235K, 297E, 315Q, 384Q, des447 hIgG4-Fc(228-447)) … (other, Cys229 (EU numbering) sulphur bound to an acetyl arm of the linker; A70K N(eps) acylated by the trivalent linker 4-[bis[2-[(2-acetyl)amino]ethyl]amino]-4-oxo-butanoyl, also called Ex 5.17) chain 1: GIVEQCCTSICSLEQLENYCGGQEPGQEPGQEPGQEPGQEPGQEPGQEPGQEPGQEPGQEPGQEPGQEPKP chain 2: FVNQHLCGSHLVEALYLVCGERGFHYTPR chain 3: ASCPAPEAKGGPSVFLFPPKPKDTLMISRTPEVTCVVVDVSQEDPEVQFNWYVDGVEVHNAKTKPREEQFESTYRVVSVLTVLHQDWLQGKEYKCKVSNKGLPSSIEKTISKAKGQPREPQVYTLPPSQEEMTKNQVSLTCLVKGFYPSDIAVEWESQGQPENNYKTTPPVLDSDGSFFLYSRLTVDKSRWQEGNVFSCSVMHEALHNHYTQKSLSLSLG | 4.39 % of human insulin | 3.98%
8 | A14E, A21G, A22(GQAPGQAPGQEP)6-GQAP, A98K^, A99P, B29R, desB30 human insulin/(227A, 234A, 235K, 297E, 315Q, 384Q, des447 hIgG4-Fc(228-447)) … (other, Cys229 (EU numbering) sulphur bound to an acetyl arm of the linker; A98K N(eps) acylated by the trivalent linker 4-[bis[2-[(2-acetyl)amino]ethyl]amino]-4-oxo-butanoyl) chain 1: GIVEQCCTSICSLEQLENYCGGQAPGQAPGQEPGQAPGQAPGQEPGQAPGQAPGQEPGQAPGQAPGQEPGQAPGQAPGQEPGQAPGQAPGQEPGQAPKP chain 2: FVNQHLCGSHLVEALYLVCGERGFFYTPR chain 3: ASCPAPEAKGGPSVFLFPPKPKDTLMISRTPEVTCVVVDVSQEDPEVQFNWYVDGVEVHNAKTKPREEQFESTYRVVSVLTVLHQDWLQGKEYKCKVSNKGLPSSIEKTISKAKGQPREPQVYTLPPSQEEMTKNQVSLTCLVKGFYPSDIAVEWESQGQPENNYKTTPPVLDSDGSFFLYSRLTVDKSRWQEGNVFSCSVMHEALHNHYTQKSLSLSLG | 3.02 % of human insulin | 4%
9 | (A14E, A21G, A22(GQEP)19, A98K^, A99P, B25H, B29R, desB30 human insulin)/(227A, 234A, 235K, 297E, 315Q, 384Q, des447 hIgG4-Fc(228-447)) … (other, Cys229 (EU numbering) sulphur bound to an acetyl arm of the linker; A98K N(eps) acylated by the trivalent linker 4-[bis[2-[(2-acetyl)amino]ethyl]amino]-4-oxo-butanoyl, also called Ex 5.12) chain 1: GIVEQCCTSICSLEQLENYCGGQEPGQEPGQEPGQEPGQEPGQEPGQEPGQEPGQEPGQEPGQEPGQEPGQEPGQEPGQEPGQEPGQEPGQEPGQEPKP chain 2: FVNQHLCGSHLVEALYLVCGERGFHYTPR chain 3: ASCPAPEAKGGPSVFLFPPKPKDTLMISRTPEVTCVVVDVSQEDPEVQFNWYVDGVEVHNAKTKPREEQFESTYRVVSVLTVLHQDWLQGKEYKCKVSNKGLPSSIEKTISKAKGQPREPQVYTLPPSQEEMTKNQVSLTCLVKGFYPSDIAVEWESQGQPENNYKTTPPVLDSDGSFFLYSRLTVDKSRWQEGNVFSCSVMHEALHNHYTQKSLSLSLG | 2.35 % of human insulin | 1.85%
10 | A14E, A21G, A22(GQAPGQAPGQEP)6-GQAP, A98K^, A99P, B3Q, B25H, B29R, desB30 human insulin/(227A, 234A, 235K, 297E, 315Q, 384Q, des447 hIgG4-Fc(228-447)) … (other, Cys229 (EU numbering) sulphur bound to an acetyl arm of the linker; A98K N(eps) acylated by the trivalent linker 4-[bis[2-[(2-acetyl)amino]ethyl]carbamoylamino]butanoyl, also called Ex 5.24) chain 1: GIVEQCCTSICSLEQLENYCGGQAPGQAPGQEPGQAPGQAPGQEPGQAPGQAPGQEPGQAPGQAPGQEPGQAPGQAPGQEPGQAPGQAPGQEPGQAPKP chain 2: FVQQHLCGSHLVEALYLVCGERGFHYTPR chain 3: ASCPAPEAKGGPSVFLFPPKPKDTLMISRTPEVTCVVVDVSQEDPEVQFNWYVDGVEVHNAKTKPREEQFESTYRVVSVLTVLHQDWLQGKEYKCKVSNKGLPSSIEKTISKAKGQPREPQVYTLPPSQEEMTKNQVSLTCLVKGFYPSDIAVEWESQGQPENNYKTTPPVLDSDGSFFLYSRLTVDKSRWQEGNVFSCSVMHEALHNHYTQKSLSLSLG | 3.83 % of human insulin | 4.6%
